# Source: US20090208538A1 (ROCKEFELLER UNIVERSITY, published 2009)
# B1: cdr2 203-211 TMLQAQLSL (peptide)
# peptide: TMLQAQLSL
# B2: cdr2 400-408 ASGWELASV (peptide)
# peptide: ASGWELASV
# B3: cdr2 176-184 VFAEKITSL (peptide)
# peptide: VFAEKITSL
# B4: cdr2 289-297 SLLEEMFLT (peptide)
# peptide: SLLEEMFLT
# B5: cdr2 293-301 EMFLTVPES (peptide)
# peptide: EMFLTVPES
# B6: cdr2 136-144 LKSSGQGRR (peptide)
# peptide: LKSSGQGRR
# B7: cdr2 217-225 VTMEEEYGL (peptide)
# peptide: VTMEEEYGL
# B8: cdr2 237-245 LGATGAYRA (peptide)
# peptide: LGATGAYRA
# B9: cdr2 131-139 SQVEELKSS (peptide)
# peptide: SQVEELKSS
# B10: cdr2 65-73 YLTKQVELL (peptide)
# peptide: YLTKQVELL
# B11: cdr2 29-37 QLAAELGKT (peptide)
# peptide: QLAAELGKT
# B12: cdr2 273-281 KLVPDSLYV (peptide)
# peptide: KLVPDSLYV
# B13: cdr2 204-212 MLQAQLSLE (peptide)
# peptide: MLQAQLSLE
# B14: cdr2 405-413 LASVNPEPV (peptide)
# peptide: LASVNPEPV
# B15: cdr2 373-381 SLSHKAVQT (peptide)
# peptide: SLSHKAVQT
# B16: cdr2 274-282 LVPDSLYVP (peptide)
# peptide: LVPDSLYVP
# B17: cdr2 341-349 RGISLLHEV (peptide)
# peptide: RGISLLHEV
# B18: cdr2 164-172 LYDLRQHFV (peptide)
# peptide: LYDLRQHFV
# B19: cdr2 391-399 GVNAQSEPV (peptide)
# peptide: GVNAQSEPV
# B20: cdr2 82-90 KVYEQLDVT (peptide)
# peptide: KVYEQLDVT
# B21: cdr2 206-214 QAQLSLERQ (peptide)
# peptide: QAQLSLERQ
# B22: cdr2 313-221 TILSSLAGS (peptide)
# peptide: TILSSLAGS
# notes: Position printed as 313-221
# B23: cdr2 384-392 AAAKDLTGV (peptide)
# peptide: AAAKDLTGV
# Target: T1, HLA-A*0201 (human)
# T1 construct: also called HLA-A2.1; HLA A2.1
# Assay: iTopia binding;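 note: each peptide tested for binding to HLA-A2 molecules immobilized on plates, using a commercial screening kit run per its supplied protocol and reagents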
row,Binder,binding vs positive control
1,B1,> 30%
2,B2,> 30%
3,B3,> 30%
4,B4,> 30%
5,B5,> 30%
6,B6,> 30%
7,B7,> 30%
8,B8,> 30%
9,B9,> 30%
10,B10,> 30%
11,B11,> 30%
12,B12,> 30%
13,B13,> 30%
14,B14,> 30%
15,B15,> 30%
16,B16,> 30%
17,B17,> 30%
18,B18,> 30%
19,B19,> 30%
20,B20,> 30%
21,B21,> 30%
22,B22,> 30%
23,B23,> 30%

# Target: T1, HLA-A*0201
# Assay: iTopia affinity
row,Binder,ED50
1,B1,0.8 µM
2,B2,1 µM
3,B3,5 µM
4,B4,6 µM
5,B5,17 µM
6,B6,16 µM
7,B7,2 µM
8,B8,10 µM
9,B9,11 µM
10,B10,2 µM
11,B11,20 µM
12,B12,3 µM
13,B13,5 µM
14,B14,4 µM
15,B15,4 µM
16,B16,10 µM
17,B17,1 µM
18,B18,0.5 µM
19,B19,10 µM
20,B20,8 µM
21,B21,8.1 µM
22,B22,2 µM
23,B23,3 µM

# Target: T1, HLA-A*0201
# Assay: iTopia off-rate
row,Binder,t1/2
1,B1,9.8
2,B2,0.5
3,B3,0.4
4,B4,13.9
5,B5,1.38
6,B6,2.38
7,B7,6.5
8,B8,1.2
9,B9,2.42
10,B10,8.1
11,B11,1.4
12,B12,6.1
13,B13,5.1
14,B14,1.9
15,B15,0.8
16,B16,2.4
17,B17,7
18,B18,0.4
19,B19,6.4
20,B20,1.3
21,B21,3.42
22,B22,1.1
23,B23,6.5

# Target: HLA-A*2402 (human)
# Assay: iTopia affinity
row,Binder,ED50
1,B1,0.7 µM
2,B3,0.26 µM
3,B10,1.9 µM
4,B18,1.6 µM

# Target: HLA-A*2402 (human)
# Assay: iTopia off-rate
row,Binder,t1/2
1,B1,0.25
2,B3,0.78
3,B10,0.22
4,B18,0.27

# Target: T1, HLA-A*0201
# Assay: iTopia net score
row,Binder,iScore
1,B1,0.811
2,B2,0.187
3,B3,0.106
4,B4,0.803
5,B5,0.15
6,B6,0.176
7,B7,0.528
8,B8,0.13
9,B9,0.154
10,B10,0.645
11,B11,0.15
12,B12,0.499
13,B13,0.235
14,B14,0.244
15,B15,0.129
16,B16,0.154
17,B17,0.752
18,B18,0.199
19,B19,0.292
20,B20,0.139
21,B21,0.174
22,B22,0.238
23,B23,0.469

# Target: HLA-A*2402 (human)
# Assay: iTopia net score
row,Binder,iScore
1,B1,0.117
2,B3,0.446
3,B10,0.107
4,B18,0.157
